A short description of this data set: yeast display, Sf9 membrane polyspecificity reagent, FACS + sequencing; frameworks hold sequencing errors. A digest of the protocol:
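After 36–48 hours of galactose induction, yeast (Saccharomyces cerevisiae BJ5465) displaying a synthetic nanobody library were stained at 4 °C for 1 hour with 10% biotinylated, detergent-solubilized Sf9 membrane reagent. Streptavidin microbeads enriched the stained cells before FACS sorting into low and high (top ~1%) gates on anti-HA and streptavidin fluorescence. Each clone's polyreactivity label reflects its gate of origin.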
For “QVQLVESGGGLVQAGGSLRLSCAASGRTCGYNAMGWYRQAPGKERELVAAISWSGTRSYYADSVKGRFTSSRDNAKNTVYLQMNSLKPEDTAVYYCAKRTLYGRTWSTSDYWGQGTQVTVSS”, the “polyreactivity (PSR sort gate)” value is given as “high polyreactivity”.

Consider “QVQLVESGGGLVQAGGSLLISCAASGSTFLLNAMGWYRQAPGKERELVAAITGSGTTTYYADSVKGRFTISRDNAKNTVFLHMNSLKPEDTAVYYCAAYAYYHTGDDYWGQGTQVTVSS”, for which the “polyreactivity (PSR sort gate)” value is listed as “high polyreactivity”.

With “QVQLVESGGGLVQAGGSLRLSCAASGITLFGYTMGWYRQAPGKERELVAAIRRRGVSTYYADSVKGRFTISRDNAKNTVYLQMNSLKPEDTAVYYCAKSLKPYTDYDYWGQGTQVTVSS”, the “polyreactivity (PSR sort gate)” value was “high polyreactivity”.

As for “QVQLVESGGDLVQAGGSLRLSCGASGFIFDGYAMGWYRQAPGKERELVAAISSSGGRTHYADSVKGRFKISRDNAMNTVYLQMNSLKAEDTAVYYCAATVRGKRSTYDYWGQGTQVTVSS”, the “polyreactivity (PSR sort gate)” value is “high polyreactivity”.

Regarding “QVQLVESGGGLVQAGGSLRLSCAASGRIFVWNVMGWYRQAPGKERELVAAITYSGDTTYYADSVKGRFTISRDNAKNTVYLQMNSLKPEDTAFYYCAAVRRGGGVKYDYWGQGTQVTVSS”, the “polyreactivity (PSR sort gate)” value was “high polyreactivity”.

On to “QVQLQESNGGLVQAGGCLRLSCAASGNIFDADIMGWFRKAPGIERELVASITDGGSTNYADSVKGRFTINRDNALNTVYLQMYSLKPEDTAVYYCAVSYKGWYQLGYWGQGTQVTVSS”, for which the “polyreactivity (PSR sort gate)” value is recorded as “high polyreactivity”.

Turning to “QVQLVESGGGLVQAGGSLRLSCAASGFIFGWNAMGWSRQAPGKEREFVAAISWSGGSTYYADSVKGRFTISRDNAKNTVYLQMNSLKPEDTAVYYCAREYHGDSRRYDYWGQGTQVTVSS”, the “polyreactivity (PSR sort gate)” value is reported as “high polyreactivity”.

Turning to “QVQLVESGGGLVQAGGSLRLSCAASGSTFYHNAMGWYRQAPGKERELVAAITSGTSTYYADSVKGRFTISRDNAKNTVYLQMNSLKPEDTAVYDCAADSPWGGGYFVLYNYWGQGTQVTVSS”, the “polyreactivity (PSR sort gate)” value was “low polyreactivity”.

In the case of “QVQLVESGGGLVQAGGSLRLSCAASGSTFIFNTMGWYRQAPGNERELVAAIRLSGGSTYYADSVKGRFTLSRDNAKYTVYLQMNSLKPEDTAVYYCARRLATRGHTYDYWGQGTQVTVSS”, the “polyreactivity (PSR sort gate)” value was “low polyreactivity”.

As for “QVQLVESGGGLVQAGGSLRLSCAASGPTFYRYAMGRYRQAPGKERELVAAISASGGSTYYADSVKGRFTISRDNAKNTVYLQMNSLKPEDTAVYYCAARGWYSLYEFYYWGQGTQVTVSS”, the “polyreactivity (PSR sort gate)” value is listed as “high polyreactivity”.

Consider “QVQLVESGGGLVQAGGSLRLSCAASGRISYLYTMGWYRQAPGKERELVAAIRWRDGSTYYADSVKGRFTISRDNAKNTVYLQMNSLKPEDTAVYYCASTPVGFYWYDYWGQGTQVTVSS”, for which the “polyreactivity (PSR sort gate)” value is on record as “low polyreactivity”.

On to “QVQLGESGGGLVQAGGSLRLSCAASGRIFVKYAMGWYRQAPGKERELVAAISKSGGSTYYADSVKGRFTISRDNAKKTVYLQMNSLKPEDTAVYYCATRSREQYSVSYRLDFWGQGTQVTVSS”, for which the “polyreactivity (PSR sort gate)” value is given as “low polyreactivity”.

As to “QVQLVESGGGLVQAGGSLRLSCAASGRTLRYYAMGWYRQAPGKERELVAAITKSGGSTYYADSVKGRFTISRDNAKNTVYLQMTSLKPEDTAVYYCNKVTYSRAQYIGGDGYYWGQGTQVTVSS”, the “polyreactivity (PSR sort gate)” value is on record as “high polyreactivity”.

For the sequence “QVQLVESGGGLVQAGGSLRLSCAASGIIFTYYAMGWYRQAPGKERELVAAISVSGSSTYYADSVKGRFTISRDNAKNTVYLQMNSLKPEDTAVYYCAARYQWGTRGFGYWGQGTLVTVSS”, the “polyreactivity (PSR sort gate)” value is reported as “high polyreactivity”.

With “QVQLVESGGGLVQAGGSLRLSCAASGSTFYKYAMGWYRQAPGKERELVASISRSGGSTSYADSVKGRFTISRDNAKNTVYLQMNSLKPEDTAVYYCAADRYSSPYYSSPNEYDYWGQGTQVTVSS”, the “polyreactivity (PSR sort gate)” value is listed as “high polyreactivity”.

On to “QVQLVESGGGLVQAGGSLRLSCAASGSIYYPYAMGRYRQAPGKERELVAAITTGGSTYYADSVKGRFTISRDNAKNTVYLQMNSLKPEDTAVYYGNKGSFPYTSKAYSYSLGGDDYWGQGTQVTVSS”, for which the “polyreactivity (PSR sort gate)” value is recorded as “low polyreactivity”.

As for “QVHLVESGGGLVQAGGSLRLSCAASGRIFKIYAMGWYRQAPGKERELVASISWSGGRTYYADSVKGGFTISRDNAKNTVYVQMNSLKPEDTAVYYCAATFSNSSYIYDFWGQGTHVTVSS”, the “polyreactivity (PSR sort gate)” value is on record as “high polyreactivity”.

“QVQLVESGGGLVQAGGSLRLSCAASGLTFYIYAMGWYRQAPGKEREFVAAIRRSDARTYYADSVKGRFTISRDNAKNTVYLQMNSLKPEDTAVYYCARPPWFTGYNSGYWGQGTQVTVSS”: the “polyreactivity (PSR sort gate)” value was “high polyreactivity”.

“QIQLVESGGGLVQAGGSLRLSCSASGSISGYYSRRWYRQAPGKQSEFVASIRYTGARTYYADSVKGRFTISLDNAKNTVYLQMNSLIAEDTAVYFWAADVKRDSVWGGDYWGQGNQVTVSS”: the “polyreactivity (PSR sort gate)” value is “low polyreactivity”.

Take “KVQLVESGGGLVQAGGSLRLSCAASGFTFLRYGMGGYRQAPGKERELVASITSGGGTNYADSVKGRFTISRDNAKNTVYLQLNSLKPEDSAVYYCNAVFFYHGTKPAFISHDYWGQGTQVTVSS”: the “polyreactivity (PSR sort gate)” value is given as “low polyreactivity”.

In the case of “QVQLVESGGGLVQAGGSLRLSCAASGIIFYKYAMGWYRQAPGKERELVAAITSGGGRTYYADSVKGRFTISRDNPKNSVYLQMNSLKPEDTAVYYCAATRPATYAAYDYWGQGTQVTVSS”, the “polyreactivity (PSR sort gate)” value is “high polyreactivity”.

As for “QVQLVESGGGLVQAGGSLRLSCAASGLIFRYYAMGWYRQAPGKERELVAAISLRGGSTYYADSVKGRFTISRDNAKNTVYLQMNSLKPEDTAVYYCAAQWAAFSVANQYGYWGQGTQVTVSS”, the “polyreactivity (PSR sort gate)” value is “high polyreactivity”.

Take “QVHLVESGGGLVQAGGSLRLSCAASGVIFSSYAMGWYRQAPGKERELVAAISTGDGSTTYADSVKGRFTISRDNAKNTVYLQMNSLIPEDTAVYYCNVKYRSSYRTDFDYWGQGTQVTVSS”: the “polyreactivity (PSR sort gate)” value was “low polyreactivity”.

On to “QVQLVESGGGLVQAGGSLRLSCAASGRISVRNTMGWYRQAPGKERELVARISSTGGSTYYADSVKGRFTISRDNAKNTVYLQMNSLKPEDTAVYYCNAKYYTRYPYLGKGDYWGQGTQVTVSS”, for which the “polyreactivity (PSR sort gate)” value is recorded as “high polyreactivity”.

As for “QVQLVESGGGLVQAGGTLRLSCAASGSTFYENTMGWYRQARGKERELVAAISFRGGSTYYADSVKGRFTISRDNAKKTVYLQMNSLKPEDTAVYYCAKDYYTLRLYDYWGQGTLVTVSS”, the “polyreactivity (PSR sort gate)” value was “low polyreactivity”.

With “QVQLVESGGGLVQAGGSLRLSCAASGRIFGRYAMGWSRQAPGKERELVAAIRWSVGSTYYADSVKGRFTISRDNAKNTVYLQMNSLKPEDTAVYYCAADIRQSIMDYWGQGTQVTVSS”, the “polyreactivity (PSR sort gate)” value was “high polyreactivity”.

As to “QVQLVESGGGLVQAGGSLRLSCAASGSTIYDNAMGWYRQATGKESELVAAITWSVGRTYYADSVKGRFTISRDNAKNTVYLQMNSMKPEDTAVYYCAARSQDRTYFQVFVSDTPYNYWGQGTQVTVSS”, the “polyreactivity (PSR sort gate)” value was “low polyreactivity”.

On to “QVQLVESGGGLVQAGGSLRLSCAASGITFYLYAMGWYRQAPGKERELVAAISRGGSTNYADSVKGRFTISRDNAKNTVYLQMNSLKPEDTAVYYCAAVDRYGFGYWGQGTQVTVSS”, for which the “polyreactivity (PSR sort gate)” value was “high polyreactivity”.

“QVQLVESGGGLVQAGGSLRLSCAASGYIFPKNAMGGYRQAPGKERELVAAITGSGGSTYYADSVKGRFTISRDNAKNTVYLQMISLKPEDTAVYYCAKRSWFEYDYWGQGTQVTVSS”: the “polyreactivity (PSR sort gate)” value is reported as “low polyreactivity”.

Turning to “QVQLVETGGCLVQAGGSLRLSCAASGSTLHYYAMGWSRQAPGKQREFVAGISRYGGRTYNADSVKGRFTISRDNAKNTVYLQMNSLKPEDTAVYYCNAVLVGYRPYREFDHWGQGTQVTVSS”, the “polyreactivity (PSR sort gate)” value is “high polyreactivity”.

With “QVQLVESGGGLVQAGGSLRLSCAASGSTFYHYAMGWYRQAPGKERELVASISHSGGRTFYADSVKGRFTISRDNAKNTVYLQMNSLKPEDTAVYYCAADWRTLTEYGYKGYYWGLGTQVTVSS”, the “polyreactivity (PSR sort gate)” value is “low polyreactivity”.

In the case of “QVQLEESGGGLVQAGGSLRISCAAYGSTFYYNVMGWYRQAPGKERELVAAITWRGDITYYADSVKGRFTISRDNAKYNVYLQMKCLKPEDTAVFYCAKRYQPSYRSNFWGEGTQVTVSS”, the “polyreactivity (PSR sort gate)” value is reported as “low polyreactivity”.

Take “QVQLVESGGGLFQAGGSLRLSCAASGRIYRFYAMGWYRQAPGKERELVAAISASGGSTYYADSVKGRFTSSRDNAKNTVYLQMISLKPEVTAVYYCAAYSWGGGYYWGQGTQVTVSS”: the “polyreactivity (PSR sort gate)” value is recorded as “high polyreactivity”.

Take “QVQLVESGGRLVQAGGSLRLSCAASGRILRYYALGWYRQAPGKERELVASISRGGSTYYADSVKGRFTISRDNAKNTVYLQMNSLKPEDTAVYDCATEVRRSTREFGYWGQGTQVTVSS”: the “polyreactivity (PSR sort gate)” value is “high polyreactivity”.

Take “QVQLVESGGGLVQAGGSLHLSCAASGRIFRVNAMGWYRQAPGKERELVAAISYRGGRTYYADSVKGRFTFSRDNAKNTVYLQMNSLKPEDTAVYYCAAKVWARVDGRQFRMEYWGQGTQVTVSS”: the “polyreactivity (PSR sort gate)” value is “high polyreactivity”.

“QVQLVESGGGLVQAGGSLRLSCAASGFTFWRYAMGWYRQAPGKERELVAAITWSGGRTYYADSVKGRFTISRDNAKNTVYLQMNSLKPEDTAVYYCNVDAYGYRPYRYYYWGQGTQVTVSS”: the “polyreactivity (PSR sort gate)” value is reported as “high polyreactivity”.

Regarding “QVQLVESGGALVQAGGSHRLSCAASGIIFDYNAAMGWYRQAPGKERELVAAISISGGSTYYADSVKGRFTISRDNAKNTVYLQMNSPKPEDTAVSYCAAVNYEWNYGYDYWGPGTQVTVSS”, the “polyreactivity (PSR sort gate)” value was “low polyreactivity”.

“QVQLVESGGGLVQAGGSLRLSCAASGITFGRYAMGSYRQPPGKEREFVAAISWSGGSTYYADSVKGRFTISLDNATNPVYLQINSLKPEDTAVYYCAVEWYYTSYHIRVYRDNYWGQGTQVTVSS”: the “polyreactivity (PSR sort gate)” value is “high polyreactivity”.

“QVQLVESGGGLVQAGGSLRLSCAATGGIFNVYVMGWYRHAPGKESEFVAAITWRGGSTYYADSVKGRFTISRDNAKNTVYLQMNSLKPEDTAVYYCNADAPFQSSSDGYQVEYWGQGTQVTVSS”: the “polyreactivity (PSR sort gate)” value is given as “low polyreactivity”.

As to “QVQLVETGGGLVQAGGSLRLSCAASGSIFITYLMGWNRQAPGKERELVDGISRSGGSTYYADSVKGRFTISRDNAMNTVYLQMNSLKPEDTAVYYCAAFFLRRPGSSGLRLLGQGTQVTVSS”, the “polyreactivity (PSR sort gate)” value is “high polyreactivity”.
